Patent US20180319878A1 (NANYANG TECHNOLOGICAL UNIVERSITY, published 2018)

Target: T1, recombinant human cANGPTL4 (C terminal region of angiopoietin-like 4) (human, UniProt Q9BY76 186-406, limits assumed)
T1 construct: domain: c terminal region; Immobilized on the chip in SPR; added at 6 µg/ml to HMVECs in cell assays; also called rh-cANGPTL4; rhcANGPTL4
T1 sequence (looked up): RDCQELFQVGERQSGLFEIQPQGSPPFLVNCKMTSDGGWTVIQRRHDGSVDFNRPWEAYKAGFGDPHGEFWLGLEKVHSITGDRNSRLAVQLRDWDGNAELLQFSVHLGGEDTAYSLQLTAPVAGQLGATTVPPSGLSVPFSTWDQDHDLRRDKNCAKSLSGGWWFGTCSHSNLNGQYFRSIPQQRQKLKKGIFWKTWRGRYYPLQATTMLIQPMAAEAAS
Test: SPR (BIAcore 2000), immobilized cANGPTL4, global fitting
Experimental: Six concentrations (0.16, 0.32, 0.63, 1.25, 2.50 and 5.0 μM) of recombinant integrin β1, first extracellular domain of VE-cadherin (ECD1), extracellular repeat 1 domain of VE-cadherin (EC1), occludin or JAM-A were used.
Global fitting of the SPR data was performed as previously described to determine the KD. Preinjection or preincubation with the indicated antibodies or preimmune IgG was performed to determine specific interactions. Each sensorgram was corrected by subtracting a sensorgram obtained from a reference flow cell with no immobilized protein. […] Values are mean±S.D. (n=3)

B1: claudin-5 (SPR analyte) (other, UniProt O00501 1-218, looked up)
chain: MGSAALEILGLVLCLVGWGGLILACGLPMWQVTAFLDHNIVTAQTTWKGLWMSCVVQSTGHMQCKVYDSVLALSTEVQAARALTVSAVLLAFVALFVTLAGAQCTTCVAPGPAKARVALTGGVLYLFCGLLALVPLCWFANIVVREFYDPSVPVSQKYELGAALYIGWAATALLMVGGCLLCCGAWVCTGRPDLSFPVKYSAPRRPTATGDYDKKNYV
  Kd: 58.7 nM
